Changes are numbered by the printed parent chain.
Tests used:
[1] = target: T1, recombinant CD47 (recCD47), SinoBiological 12283-H27H-B, biotinylated (human, UniProt Q08722 19-139, biotinylated (AVI-tag)); experiment: SPR Biacore S200, single-cycle, recCD47 on SA chip 100 RU, antibody as analyte, 25 C, 1:1 model;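 further: antibodies were injected over the captured CD47 at a series of concentrations, and KD was derived as the dissociation rate constant divided by the association rate constant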
T1 construct: Bought protein, 17 kDa; At 17 kDa it can only be a part of it; also called recombinant biotinylated CD47; not shown: C-terminal His- and AVI-tag
T1 sequence (Q08722 19-139 limits assumed): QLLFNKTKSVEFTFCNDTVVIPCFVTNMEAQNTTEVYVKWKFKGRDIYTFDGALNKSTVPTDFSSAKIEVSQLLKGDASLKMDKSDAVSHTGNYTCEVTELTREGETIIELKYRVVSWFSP

[2] = target: T2, human CD47 on the surface of cells (human cancer cell lines and human red blood cells) (human, UniProt Q08722 19-323); experiment: flow cytometry on Jurkat cells, goat anti-human FITC, MFI against log µg/ml
T2 construct: Native CD47 of human cell lines (Jurkat, Reh, CCRF-CEM and others) and of RBCs from healthy donors; also called cell-surface CD47
T2 sequence (Q08722 19-323 limits assumed): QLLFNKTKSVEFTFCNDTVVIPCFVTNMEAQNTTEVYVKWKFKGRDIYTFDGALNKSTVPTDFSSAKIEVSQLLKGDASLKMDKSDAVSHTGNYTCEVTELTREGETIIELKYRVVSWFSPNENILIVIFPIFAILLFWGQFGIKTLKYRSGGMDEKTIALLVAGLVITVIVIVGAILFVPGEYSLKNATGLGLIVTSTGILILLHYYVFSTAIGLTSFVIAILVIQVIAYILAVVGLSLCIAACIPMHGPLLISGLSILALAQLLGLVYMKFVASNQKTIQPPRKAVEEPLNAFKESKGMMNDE
Protocol: PBS-washed cancer cell lines or RBCs were pelleted and washed with washing buffer (3% (w/v) BSA, 1% (w/v) sodium azide in DPBS) and incubated with Human BD Fc Block for 10 minutes before being plated into a round-bottom 96 well plate (2.5×10⁵ cells per well). […] All samples were prepared in duplicates. The cells were washed twice in washing buffer, followed by 30 minutes incubation with Goat anti-human FITC staining buffer (Goat anti-human FITC diluted 1:200 in washing buffer) on ice, protected from light with slight agitation. The cells were analyzed by flow cytometry after three washes in washing buffer. Excitation wavelength FITC: 488 nm, detection: 530/30 nm.

[3] = target: T1, recombinant CD47 (recCD47), …; experiment: SPR Biacore S200, single-cycle (top 80 nM), recCD47 on SA chip 1330 RU, antibody as analyte, 1:1 model
[4] = target: T2, human CD47 on the surface of cells …; experiment: flow cytometry, FITC-conjugated antibody on CCRF-CEM cells
Protocol: (§1) PBS-washed cancer cell lines or RBCs were pelleted and washed with washing buffer (3% (w/v) BSA, 1% (w/v) sodium azide in PBS) and incubated with Human BD Fc Block for 10 minutes before being plated into a round-bottom 96 well plate (2.5×10⁵ cells per well). Antibodies were conjugated with FITC using the FITC conjugation kit from Abcam. […] All samples were prepared in duplicates. Cells were washed three times and resuspended in cold washing buffer. Cells were kept on ice until analyses by flow cytometry. Excitation wavelength FITC: 488 nm, detection: 530/30 nm.
(§2) 4-parameter curve fitting was performed using GraphPad Prism

[5] = target: T2, human CD47 on the surface of cells …; experiment: flow cytometry, FITC-conjugated antibody on Reh cells
Protocol: as §1, §2

[6] = target: T2, human CD47 on the surface of cells …; experiment: flow cytometry, FITC-conjugated antibody on human RBCs
Protocol: as §1, §2

[7] = target: T1, recombinant CD47 (recCD47), …; experiment: SPR Biacore S200, single-cycle (top 1 uM), recCD47 on SA chip 1330 RU, antibody as analyte, 1:1 model
[8] = target: T1, recombinant CD47 (recCD47), …; experiment: SPR Biacore S200, multi-cycle (top 50 nM), run 1, recCD47 on SA chip 1330 RU, antibody as analyte, 1:1 model
[9] = target: T1, recombinant CD47 (recCD47), …; experiment: SPR Biacore S200, multi-cycle (top 50 nM), run 2, recCD47 on SA chip 1330 RU, antibody as analyte, 1:1 model
[10] = target: T2, human CD47 on the surface of cells …; experiment: flow cytometry, FITC-conjugated antibody on Jurkat cells
Protocol: as §1, §2

[11] = target: T1, recombinant CD47 (recCD47), …; experiment: SPR Biacore S200, multi-cycle (top 50 nM), recCD47 on SA chip 1330 RU, antibody as analyte, 1:1 model
[12] = target: T1, recombinant CD47 (recCD47), …; experiment: SPR Biacore S200, single-cycle, recCD47 on SA chip 700 RU, antibody as analyte, 25 C, 1:1 model
[13] = target: T1, recombinant CD47 (recCD47), …; experiment: SPR Biacore S200, single-cycle, recCD47 on SA chip 100 RU, fragment as analyte, 25 C, 1:1 model

B1: CO207 humanized IgG4 anti-CD47 antibody (antibody, V domains shown)
VH: QVQLVQSGSELKKPGASVKVSCKASGYTFTNFGMHWVRQAPGQGLKWMGWINTYTGEPTYTDDFKGRFVFSLDTSVSTAYLQISSLKAEDTAVYYCTRGDYRYGDSWGQGTTVTVSS
VL: DIVMTQTPLSLSVTPGQPASISCRSSQSLVHSNGKTYLHWYLQKPGQSPQLLIYRVSNRFSGVPDRFSGSGSGTDFTLKISRVEAEDVGVYYCSQSTHVPFTFGQGTKLEIK
notes: also called huCO-mAb
Kd [1]: 0.0153 nM
koff [1]: 7.3e-05 s⁻¹
kon [1]: 4.8e+06 M⁻¹ s⁻¹

B2: CO201 humanized IgG4 anti-CD47 antibody (antibody, V domains shown)
VH: B1 VH with K46E, T97A
VL: B1 VL with S48P
notes: also called huCO-mAb
EC50 (read off the curve) [2]: ~0.07 µg/mL
Kd [1]: 0.0499 nM
koff [1]: 0.00043 s⁻¹
kon [1]: 8.7e+06 M⁻¹ s⁻¹

B3: CO202 humanized IgG4 anti-CD47 antibody (antibody, V domains shown)
VH: B1 VH with K46E
VL: B1 VL with S48P
notes: also called huCO-mAb
Kd [1]: 0.023 nM
koff [1]: 0.00012 s⁻¹
kon [1]: 5.3e+06 M⁻¹ s⁻¹

B4: CO203 humanized IgG4 anti-CD47 antibody (antibody, V domains shown)
VH: B1 VH
VL: B1 VL with S48P
notes: also called huCO-mAb
Kd [1]: 0.0164 nM
koff [1]: 7.9e-05 s⁻¹
kon [1]: 4.8e+06 M⁻¹ s⁻¹

B5: CO204 humanized IgG4 anti-CD47 antibody (antibody, V domains shown)
VH: B1 VH with Q43K
VL: B1 VL with S48P
notes: also called huCO-mAb
Kd [1]: 0.0149 nM
koff [1]: 8.5e-05 s⁻¹
kon [1]: 5.7e+06 M⁻¹ s⁻¹

B6: CO205 humanized IgG4 anti-CD47 antibody (antibody, V domains shown)
VH: B1 VH with K46E, T97A
VL: B1 VL
notes: also called huCO-mAb
EC50 (read off the curve) [2]: ~0.08 µg/mL
Kd [1]: 0.056 nM
koff [1]: 0.00046 s⁻¹
kon [1]: 8.2e+06 M⁻¹ s⁻¹

B7: CO206 humanized IgG4 anti-CD47 antibody (antibody, V domains shown)
VH: B1 VH with K46E
VL: B1 VL
notes: also called huCO-mAb
Kd [1]: 0.0205 nM
koff [1]: 0.0001 s⁻¹
kon [1]: 5.1e+06 M⁻¹ s⁻¹

B8: CO208 humanized IgG4 anti-CD47 antibody (antibody, V domains shown)
VH: B1 VH with Q43K
VL: B1 VL
notes: also called huCO-mAb
Kd [1]: 0.016 nM
koff [1]: 8.1e-05 s⁻¹
kon [1]: 5e+06 M⁻¹ s⁻¹

B9: CO209 humanized IgG4 anti-CD47 antibody (antibody, V domains shown)
VH: B1 VH with K46E, T97A
VL: B1 VL with Q50K
notes: also called huCO-mAb
Kd [1]: 0.0386 nM
koff [1]: 0.00032 s⁻¹
kon [1]: 8.2e+06 M⁻¹ s⁻¹

B10: CO210 humanized IgG4 anti-CD47 antibody (antibody, V domains shown)
VH: B1 VH with K46E
VL: B1 VL with Q50K
notes: also called huCO-mAb
Kd [1]: 0.017 nM
koff [1]: 8.3e-05 s⁻¹
kon [1]: 4.9e+06 M⁻¹ s⁻¹

B11: CO211 humanized IgG4 anti-CD47 antibody (antibody, V domains shown)
VH: B1 VH
VL: B1 VL with Q50K
notes: also called huCO-mAb
Kd [1]: 0.0135 nM
koff [1]: 6.8e-05 s⁻¹
kon [1]: 5.1e+06 M⁻¹ s⁻¹

B12: CO212 humanized IgG4 anti-CD47 antibody (antibody, V domains shown)
VH: B1 VH with Q43K
VL: B1 VL with Q50K
notes: also called huCO-mAb
Kd [1]: 0.0123 nM
koff [1]: 7.2e-05 s⁻¹
kon [1]: 5.8e+06 M⁻¹ s⁻¹

B13: CO213 humanized IgG4 anti-CD47 antibody (antibody, V domains shown)
VH: B1 VH with T97A
VL: B1 VL with S48P
notes: also called huCO-mAb
Kd [1]: 0.032 nM
koff [1]: 0.00034 s⁻¹
kon [1]: 1.1e+07 M⁻¹ s⁻¹

B14: AO-A IgG1 (AO-176 candidate A) (antibody, V domains shown)
VH: QVQLVQSGAEVKKPGASVKVSCKASGYTFTNYWIHWVRQAPGQGLEWMGYTDPRTDYTEYNQKFKDRVTMTRDTSTSTVYMELSSLRSEDTAVYYCARGGRVGLGYWGQGTLVTVSS
VL: DIVMTQSPDSLAVSLGERATINCRSSQNIVQSNGNTYLEWYQQKPGQPPKLLIYKVFHRFSGVPDRFSGSGSGTDFTLTISSLQAEDVAVYYCFQGSHVPYTFGQGTKLEIKR
notes: Comparator from WO2020/198370; also called AO-A.1; AO-176 A
Kd [3]: 1 nM
koff [3]: 0.0008 s⁻¹
kon [3]: 800000 M⁻¹ s⁻¹
EC50 [4]: 0.000285 µg/mL
EC50 [5]: 0.34 µg/mL
EC50 [6]: 2.42 µg/mL
Kd [7]: 1 nM
koff [7]: 0.0006 s⁻¹
kon [7]: 500000 M⁻¹ s⁻¹
Kd [8]: 1 nM
koff [8]: 0.001 s⁻¹
kon [8]: 1.5e+06 M⁻¹ s⁻¹
Kd [9]: 1 nM
koff [9]: 0.002 s⁻¹
kon [9]: 1.8e+06 M⁻¹ s⁻¹
EC50 [10]: 0.0303 µg/mL

B15: AO-C IgG1 (AO-176 candidate C) (antibody, V domains shown)
VH: B14 VH with A16S, N61A, K65Q, D66G, M70I, R72A, T74E, V79A
VL: B14 VL
notes: Comparator from WO2020/198370; also called AO-C.1; SC-AO-C
Kd [3]: 3 nM
koff [3]: 0.003 s⁻¹
kon [3]: 1.2e+06 M⁻¹ s⁻¹
EC50 [4]: 0.00578 µg/mL
EC50 [5]: 10.5 µg/mL
Kd [11]: 6 nM
koff [11]: ~0.01 s⁻¹
kon [11]: 2.3e+06 M⁻¹ s⁻¹
EC50 [6]: 21.8 µg/mL
EC50 [10]: 0.0395 µg/mL

B16: CO-1.4 antibody (chimeric CO-1 IgG4) (antibody)
heavy: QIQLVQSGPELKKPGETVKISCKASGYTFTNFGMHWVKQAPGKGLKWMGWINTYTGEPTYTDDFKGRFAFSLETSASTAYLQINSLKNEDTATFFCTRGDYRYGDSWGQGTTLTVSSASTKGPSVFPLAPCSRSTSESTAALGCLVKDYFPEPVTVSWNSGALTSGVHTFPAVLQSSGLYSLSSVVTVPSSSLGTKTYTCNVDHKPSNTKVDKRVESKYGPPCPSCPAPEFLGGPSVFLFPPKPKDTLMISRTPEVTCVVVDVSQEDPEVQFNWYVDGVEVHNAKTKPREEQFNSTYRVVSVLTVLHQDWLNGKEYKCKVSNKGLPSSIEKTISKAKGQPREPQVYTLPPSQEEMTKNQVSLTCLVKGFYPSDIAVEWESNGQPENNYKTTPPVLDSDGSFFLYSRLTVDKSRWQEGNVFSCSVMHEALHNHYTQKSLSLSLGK
light: DVVMTQTPLSLPVSLGDQASISCRSSQSLVHSNGKTYLHWYLQKPGQSPKLLIYRVSNRFSGVPDRFSGSGSGTDFTLKISRIEAEDLGVYFCSQSTHVPFTFGSGTKLEIKRTVAAPSVFIFPPSDEQLKSGTASVVCLLNNFYPREAKVQWKVDNALQSGNSQESVTEQDSKDSTYSLSSTLTLSKADYEKHKVYACEVTHQGLSSPVTKSFNRGEC
notes: Chimeric: mouse variable domains of mCO-1 with human IgG4 constant regions; also called SC-CO-1.4
Kd [12]: 0.003 nM
koff [12]: 4.4e-06 s⁻¹
kon [12]: 1.5e+06 M⁻¹ s⁻¹

B17: CO-1 F(ab')2 antibody (other)
heavy: QIQLVQSGPELKKPGETVKISCKASGYTFTNFGMHWVKQAPGKGLKWMGWINTYTGEPTYTDDFKGRFAFSLETSASTAYLQINSLKNEDTATFFCTRGDYRYGDSWGQGTTLTVSSASTKGPSVFPLAPSSKSTSGGTAALGCLVKDYFPEPVTVSWNSGALTSGVHTFPAVLQSSGLYSLSSVVTVPSSSLGTQTYICNVNHKPSNTKVDKKVEPKSCDKTHTCPPCPAPELLG
light: B16 light
notes: F(ab')2 fragment, divalent for CD47, based on mCO-1; also called CO F(ab')2; CO-F(ab')2
koff [13]: 4.5e-05 s⁻¹
kon [13]: 6.9e+06 M⁻¹ s⁻¹

B18: AO-B IgG1 (AO-176 candidate B) (antibody, V domains shown)
VH: EVQLVQSGAEVKKPGESLKISCKGSGYTFTNYWIHWVRQMPGKGLEWMGYTDPRTDYTEYNQKFKDQVTISADKSISTAYLQWSSLKASDTAMYYCARGGRVGLGYWGQGTLVTVSS
VL: B14 VL
notes: Comparator from WO2020/198370; also called AO-B.1; AO-176 B
Kd [3]: 2 nM
koff [3]: 0.001 s⁻¹
kon [3]: 800000 M⁻¹ s⁻¹
EC50 [4]: 0.000559 µg/mL
EC50 [5]: 3.1 µg/mL
Kd [11]: 3 nM
koff [11]: 0.004 s⁻¹
kon [11]: 1.5e+06 M⁻¹ s⁻¹
EC50 [6]: 3.67 µg/mL
EC50 [10]: 0.0748 µg/mL
